In doi:10.1101/2020.04.07.029900, “Pat1 increases the range of decay factors and RNA bound by the Lsm1-7 complex” (bioRxiv, 2020):

Columns and labels:
Lsm1-7 complex = target: T1, Lsm1-7 complex (S. pombe, UniProt P87173 1-140; O94408 1-96; Q9Y7M4 1-93; O14352 1-121; O42978 1-80; Q9UUI1 1-75; …); assay: SEC; PatMC co-expressed with His6-Lsm1-7 in E. coli, co-purified on Ni-NTA and heparin, TEV, then preparative Superdex 200 16/60 in 400 mM NaCl, 20 mM HEPES 7.0, 1 mM DTT; SDS-PAGE of the complex; conditions: both partners purified
T1 construct: Lsm1, S. pombe; from a polycistron of all seven Lsm proteins; Lsm2, S. pombe; Lsm3, S. pombe; Lsm4, S. pombe; Lsm5, S. pombe; Lsm6, S. pombe; Lsm7, S. pombe; Expected mass of the monomeric complex 81 kDa; In the droplet experiment 0.1 uM of it carried Alexa Fluor 555 maleimide; In the co-purification with PatMC the His6 tag on Lsm1 was present on Ni-NTA and cut by TEV before gel filtration; also …

[1] = target: the molecule itself; assay: AUC; sedimentation velocity, 9.3 uM PatMC/Lsm1-7 with stoichiometric A15 RNA, 250 mM NaCl, 20 mM HEPES pH 7.0, 1 mM DTT, 30,000 rpm, 10-12 hours
[2] = target: the molecule itself; assay: AUC; sedimentation velocity, 9.3 uM PatMC/Lsm1-7 without RNA, 250 mM NaCl, 20 mM HEPES pH 7.0, 1 mM DTT, 30,000 rpm, 10-12 hours

T1 sequence (Q9Y7M4 whole entry, chain 3 of 2): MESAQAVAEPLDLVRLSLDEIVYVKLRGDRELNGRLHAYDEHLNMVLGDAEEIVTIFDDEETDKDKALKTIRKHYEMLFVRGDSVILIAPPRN
T1 sequence (O42978 whole entry, chain 5 of 2): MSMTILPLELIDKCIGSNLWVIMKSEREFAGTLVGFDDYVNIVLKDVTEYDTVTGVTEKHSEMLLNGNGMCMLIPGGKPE

B1: PatMC (middle and C-terminal domains of Pat1, residues 296-754) (domain or fragment, S. pombe, UniProt O42958 296-754, looked up)
chain: LDEKRQKLERDHMLMAQCAGLMTRSDKSFIARIQISQLMSEDPESDDFYYRVYSIIRGRKPSEEEASHFIQTYLGPSNNRRRGRRSENPMQKLQQQLQRLVSSAKERPKATQLSLEGALGKIAVNTVRTPRQLLNVKRPTEPASSNSSLNNFSGFSTKKDVLHAIEKVYDLLLDFEQALRKASTLETTDQEQIDTWKTTLSEKLESIWKALYINESLEASSKTRPPFISIISHPKGMRLLPRLFPHLSKEQQISILKVVVYNFDSLDIVLRGTFDVNGELPLDVVSEMSSFTQFIIPPLLTIVNELDLETINNLFSQLLNRTNAVYLIQTKIGLSFLTLFISRAEILKQSGTVNQNEKEEWENTFNVMFNRVKGHFSTVFPPPNARAYADESYPWEFLAACATAASSEQHFTLVSETRDRVLDNIITSKRAPSEIAVVRISNVNLFLNAMGLDARQLSA
notes: Pat1, S. pombe, middle and C-terminal domains (PatMC), residues 296-754; codon optimized gene in site two of pET-Duet; No tag is told for PatMC in the co-expression construct; source: E. coli BL21(DE3)*, co-expressed with Lsm1-7 from pET-Duet, co-purified (Ni-NTA, heparin, Superdex 200)
Lsm1-7 complex
  binding result: binds

B2: PatMC/Lsm1-7 complex (complex)
chain 1: LDEKRQKLERDHMLMAQCAGLMTRSDKSFIARIQISQLMSEDPESDDFYYRVYSIIRGRKPSEEEASHFIQTYLGPSNNRRRGRRSENPMQKLQQQLQRLVSSAKERPKATQLSLEGALGKIAVNTVRTPRQLLNVKRPTEPASSNSSLNNFSGFSTKKDVLHAIEKVYDLLLDFEQALRKASTLETTDQEQIDTWKTTLSEKLESIWKALYINESLEASSKTRPPFISIISHPKGMRLLPRLFPHLSKEQQISILKVVVYNFDSLDIVLRGTFDVNGELPLDVVSEMSSFTQFIIPPLLTIVNELDLETINNLFSQLLNRTNAVYLIQTKIGLSFLTLFISRAEILKQSGTVNQNEKEEWENTFNVMFNRVKGHFSTVFPPPNARAYADESYPWEFLAACATAASSEQHFTLVSETRDRVLDNIITSKRAPSEIAVVRISNVNLFLNAMGLDARQLSA
chain 2: MNQATQIIPFTTSGSLVDYVDRKVIVVLRDGKKLIGILRSFDQFANLMLQYTIERIYVDDMYGDIDRGVYIVRGENVVLLGELDLDKEYDAVKQLRRMPAEELYPLAKLHEEEKKKNIREKGKYLHSVGFSVDGGHDDLY
chain 3: MLFYSFFKTLIDTEVTVELKNDMSIRGILKSVDQFLNVKLENISVVDASKYPHMAAVKDLFIRGSVVRYVHMSSAYVDTILLADACRRDLANNKRQ
chain 4: not shown
chain 5: MLPLTLLNATQGRPILVELKNGETFNGHLENCDNYMNLTLREVIRTMPDGDKFFRLPECYIRGNNIKYLRIQDEVLSQVAKQQAQQRENRGSRFRGRGQRGRGNYGHTAPNRRGRGRGGHM
chain 6: not shown
chain 7: MDSSPNEFLNKVIGKKVLIRLSSGVDYKGILSCLDGYMNLALERTEEYVNGKKTNVYGDAFIRGNNVLYVSALDD
chain 8: MSSLQKRPGPGNSSQPTERPRKESILDLSRYQDQRIQATFTGGRQITGILKGFDQLMNLVLDDVEEQLRNPEDGKLTGAIRKLGLVVVRGTTLVLIAPMDGSEEIPNPFVQAE
notes: Pat1, S. pombe, middle and C-terminal domains (PatMC), residues 296-754; codon optimized gene in site two of pET-Duet; Lsm1, S. pombe; from a polycistron of all seven Lsm proteins; Lsm2, S. pombe; Lsm3, S. pombe; Lsm4, S. pombe; Lsm5, S. pombe; Lsm6, S. pombe; Lsm7, S. pombe; Heterooctamer, expected mass of the monomeric complex 133 kDa; TEV was added before gel filtration to remove the His6 tag …
[1]
  stoichiometry N: 4
[2]
  stoichiometry N: 2
